B1: unnamed (parent)
chain: MFGLGHNSKEISMSHIGTKFILAEKFTFDPLSNTLIDKEDSEEIIRLGSNESRILWLLAQRPNEVISRNDLHDFVWREQGFEVDDSSLTQAISTLRKMLKDSTKSPQYVKTVPKRGYQLIARVETVEEEMARESEAAHDISQPESVNEYAESSSVPSSATVVNTPQPANVVTNKSAPNLGNRLLILIAVLLPLAVLLLTNPSQTSFKPLTVVDGVAVNMPNNHPDLSNWLPSIELCVKKYNEKHTGGLKPIEVIATGGQNNQLTLNYIHSPEVSGENITLRIVANPNDAIKVCE

Variants of: B1
Details: with partner chain of the complex shown; read off a plot

Variant	response [%]
chain 1 C293S	45
chain 1 C293S W76R	5
